T1: CLL-1 (UniProt Q5QGZ9 65-265, limits assumed)
T1 sequence (looked up): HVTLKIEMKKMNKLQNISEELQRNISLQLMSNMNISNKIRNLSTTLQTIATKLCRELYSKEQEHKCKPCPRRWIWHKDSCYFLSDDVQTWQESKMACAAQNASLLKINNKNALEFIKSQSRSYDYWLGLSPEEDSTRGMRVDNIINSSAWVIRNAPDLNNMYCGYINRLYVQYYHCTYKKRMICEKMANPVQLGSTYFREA

B1: G12 (antibody, V domains shown)
VH: QVQLQQPGAELVKPGASMKMSCKASGYTFPSSNIHWLKQTPGQGLEWIGVIYPGNGDTSYNQKFKDKATLTTDKSSSTAYMQLSSLTSEDSAIYFCARVYNWHFDVWGAGTTVTVSS
VL: NIVLTQSPASLAVSLGQRATISCRASESVDGYGDIFMLWYQQKPGQPPKLLIYFASNLESGVPARFSGSGSRTDFTLTIDPVEADDAATYYCQQNNEDPYTFGGGTKLEIK
B2: M26 (antibody, V domains shown)
VH: EVQLQQSGPELVKPGASVKMSCKASGYTFTSYFIHWVKQKPGQGLEWIGFINPYNDGSKYNEKFKGKATLTSDKSSSTAYMELSSLTSEDSAVYYCTRDDGYYGYAMDYWGQGTLVTVSS
VL: DIQMTQSPSSLSASLGERVSLTCRATQELSGYLSWLQQKPDGTIKRLIYAASTLDSGVPKRFSGNRSGSDYSLTISSLESEDFADYYCLQYAIYPYTFGGGTKLEIK
B3: M22 (antibody, V domains shown)
VH: QVQLQQPGAELVKPGASVKLSCKASGYTFTRYWMHWVKQRPGQGLEWIGNIDPSDTETHYNQQFKDKATLTVDKSSSTAYMQLSSLTSEDSAVYYCAIYYGNPSYYAMDYWGQGTSVTVSS
VL: DIVMTQSPSSLTVTAGEKVTMSCKSSQNLLNSGNQKKYLNWYQQKPGQPPKLLIYWASTRESGVPDRFTGSGSGTDFTLTISSVQAEDLAVYFCQNDYSYPFTFGAGTKLELK
B4: M29 (antibody, V domains shown)
VH: EVQLQQSGPELVKPGASVKMSCKASGYIFTSYVMYWVKQKPGQGLEWIGYINPYNDGTKYNEKFKGKATLTSDKSSSTAYMELSSLTSEDSAVYYCARYYDYDYYFDYWGQGTTLTVSS
VL: DIQMTQSPSSLSASLGGKVTITCKASQDINKYIAWYQHKPGKGPRLLIHYTSTLQPGIPSRFSGSGSGRDYSFSISNLEPEDIATYYCLQYDYLWTFGGGTKLEIK

The target in this assay is T1, CLL-1. Nature of the assay: method not stated (Table 2, affinity of antibodies for CLL-1).
Turning to B1, the Kd (usually the concentration at which binding is half-saturated) stood at 0.07 nM. That is a picomolar value.
Molecule B2 showed a Kd of 0.214 nM.
In turn, B3 returned a dissociation constant Kd of 0.388 nM.
B4 yielded a dissociation constant (Kd) of 1.48 nM. This Kd is about 3.8-fold higher than that of the molecule before.

Values taken from patent US20200216515A1 (CELLECTIS, published 2020).
